{"source": "patent US20200216522A1", "key": {"[1]": {"target": "soluble Tau in Alzheimer's disease human brain lysate (human) (UniProt P10636)", "sequence (P10636 other isoform, or with tags, fused parts or gaps limits assumed)": "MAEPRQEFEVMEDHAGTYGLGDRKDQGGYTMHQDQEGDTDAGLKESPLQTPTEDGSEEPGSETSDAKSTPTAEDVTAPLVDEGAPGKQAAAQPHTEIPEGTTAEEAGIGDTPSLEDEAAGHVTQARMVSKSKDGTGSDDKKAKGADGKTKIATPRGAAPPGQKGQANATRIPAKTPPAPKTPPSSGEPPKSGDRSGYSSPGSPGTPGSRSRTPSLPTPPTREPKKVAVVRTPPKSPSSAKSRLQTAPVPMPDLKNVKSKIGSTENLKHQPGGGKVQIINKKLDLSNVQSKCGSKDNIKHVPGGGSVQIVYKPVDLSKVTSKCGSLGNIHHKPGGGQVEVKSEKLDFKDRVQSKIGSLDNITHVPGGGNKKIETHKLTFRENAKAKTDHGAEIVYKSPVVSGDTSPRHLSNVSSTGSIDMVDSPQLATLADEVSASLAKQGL", "test": "ELISA on coated brain lysate, antibody 5 nM"}, "[2]": {"target": "soluble Tau in control human brain lysate (human) (UniProt P10636)", "sequence (P10636 other isoform, or with tags, fused parts or gaps limits assumed)": "as above", "test": "ELISA on coated brain lysate, antibody 5 nM"}, "[3]": {"target": "soluble Tau in Alzheimer's disease human brain lysate (human) (UniProt P10636)", "test": "ELISA on coated brain lysate, antibody 0.5 nM"}, "[4]": {"target": "soluble Tau in control human brain lysate (human) (UniProt P10636)", "test": "ELISA on coated brain lysate, antibody 0.5 nM"}}, "note": "Several values for one entry are separate records, joined by “and”; a condition that tells them apart may be missing. Identical values can stand only once."}
{"substance": "anti-RSV antibody (negative control)", "values": [{"measurement": "ELISA signal", "setting": "[1]", "result": "0.108 and 0.107 and 0.117"}, {"measurement": "ELISA signal", "setting": "[2]", "result": "0.151 and 0.107 and 0.11"}, {"measurement": "ELISA signal", "setting": "[3]", "result": "0.108 and 0.117 and 0.115"}, {"measurement": "ELISA signal", "setting": "[4]", "result": "0.147 and 0.106 and 0.108"}]}
